# Assay: yeast display, Sf9 membrane polyspecificity reagent, FACS + sequencing; frameworks hold sequencing errors
# Summary of the method: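 Sorting gates, low and high (top ~1%), were placed on anti-HA fluorescence to track expression and on streptavidin fluorescence to track reagent binding. A clone's polyreactivity label is taken from the gate it came out of. The reagent was 10% biotinylated, detergent-solubilized Sf9 membrane, applied for 1 hour at 4 °C to galactose-induced yeast display cells.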
row,Sequence,polyreactivity (PSR sort gate)
1,QVQLVESGGGLVQAGGSLRLSCAASGRILATYTMGWYRQAPGKERELVATITSGGRTTYADSVKGRFTISRDNAKNTVYLQMNSLKPEDTAVYYCNVANWYYRKYRPLWGRDYYWGQGTQVTVSS,high polyreactivity
2,QVQLVESGGGLVQAGGSLRLSCAASGRILGKNALGWYRQAPGKEREWVADISGRGDRTHYADSVKGRFTISRDNAKNTVYLQMNSLNAEYTAVYYCAKYHHPPGKGQSVSLGYDFWGQGTQVTVSS,low polyreactivity
3,QVQLVESGGGLVQAGGSLRLSCAASGRILGKYAMGWYRQAAGKERELVAAIRLRGGSTYYADSVKGRFTISRDNAKNTVYLQMNSLKPEDTAVYYCAARYWDRSQAYNYWGQGTQVTVSS,high polyreactivity
4,QVQLVESGGGLVQAGGSLRLSCAASGRILGSYAMGWYRQAPGKERELVAAISSGARTNYADSVKGRFTISRDHAKNTVYLQMNCLKPEDTAVYYCAAATYNQDYSYDYWGQGTQVTVSS,low polyreactivity
5,QVQLVESGGGLVQAGGSLRLSCAASGRILGSYAMGWYRQAPGKERELVAGISWRGGRTYYADSVKGRFTISRDNAKNTVYLQLNSLKPEDTAVYYCATRSSSRKYGYWGQGTQVTVSS,high polyreactivity
6,QVQLVESGGGLVQAGGSLRLSCAASGRILGSYAMGWYRQAPGKERELVAGISWRGGRTYYADSVKGRFTISRDNAKNTVYLQMNSLKPEDTAVYYCATRSSSRKYGYWGQGTQVTVSS,high polyreactivity
7,QVQLVESGGGLVQAGGSLRLSCAASGRILGTYAMGWYRQAPGKERELVAAISGSGGDTYYADSVKGRFTISRDNAKNTVYLQMNSLKPEDTAVYYCAAEVPFTGGFFKYYYWGQGTQVTVSS,low polyreactivity
8,QVQLVESGGGLVQAGGSLRLSCAASGRILGVNAMGWYRQAPGKERELVAAINWNGGSTYYADSVKGRFTISRDNAKNTVYLQMNSLKPEDTAVYYCAAERSLYYVYSREYWGQGTQVTVSS,low polyreactivity
9,QVQLVESGGGLVQAGGSLRLSCAASGRILGYYGMGWYIQAPGKERELVAAITSGGGSTYYADSVKGRFTISRDNAKNTVYLQMNSLKPEDTAVYYCNAVPSQHDEFDYWGQGTQVTVSS,low polyreactivity
10,QVQLVESGGGLVQAGGSLRLSCAASGRILHFYAMGWYRQAPGKERELVAAISKSGGSTYYADSVKGRFTISRDNAKNTVYLQMNSLKPEDTAVYYCAASFIRRGSYSTTSAPGRYYWGQGTQVTVSS,high polyreactivity
11,QVQLVESGGGLVQAGGSLRLSCAASGRILHIYAMGWYRQAPGKERELVAAISWIGTSTYYADSVKGRFTISRDNAMNTVFLQMNSLKPEDTAVYYCAATGPRMYYWGQGTQVTVSS,high polyreactivity
12,QVQLVESGGGLVQAGGSLRLSCAASGRILHRNAMGWYRQAPGKERELVSAIRSRGGGTYYADSVKGRFTISRDNAKNTVYLQMKSLKPEDTAVYYCNTDRSTRTVGPGLYGYWGQGTQVTVSS,low polyreactivity
13,QVQLVESGGGLVQAGGSLRLSCAASGRILKRKAMGLYRQAPGKERELVAAISWSTGTTYYADSVKGRLTISVDNAKNTVYLQMNSLKPEDTAVYYCAKKIVSGRRVDRNDYWGQGTQVTVSS,low polyreactivity
14,QVQLVESGGGLVQAGGSLRLSCAASGRILKVYAMGWYRQAPGKERELVAAISVNGGRTYYADSVKGRFTISRDNAKNTVYLQMNSLKPEDTAVYYCAKRLYKPGNVFYSVDQSDYWGQGTQVTVSS,low polyreactivity
15,QVQLVESGGGLVQAGGSLRLSCAASGRILNVYAMGWYRQAPGKERELHAAINYRGTNTYYADSVKGRFTISRDNAKNTVFLQMNSLKPEDTAVYYCAAERWYYNVYAEYSWGQGTQVTVSS,high polyreactivity
16,QVQLVESGGGLVQAGGSLRLSCAASGRILNVYAMGWYRQAPGKERELVAAINYRGTNTYYADSVKGRFTISRDNAKNTVYLQMNSLKPEDTADYYCAARRHVYLRGSTFEFNYWGQGTHVTVSS,high polyreactivity
17,QVQLVESGGGLVQAGGSLRLSCAASGRILNWNVMGWYRQAPGKERELVAGISSDGSTYADSVKGRFTISRDNAKNTVYFQMNSLKPEDTAVYYCAADRVGLSRGYDYWGQGTQVTVSS,low polyreactivity
18,QVQLVESGGGLVQAGGSLRLSCAASGRILPLYAMGWSRQAPGKERELVATMILDGDSTYYADSVKGRFTISRDNAKNTVYLQMNSQKPEDTAVYYCNDDYTPWGRGYPYDYWGQGSQVTVSS,low polyreactivity
19,QVQLVESGGGLVQAGGSLRLSCAASGRILPSNAMGWYRQAPGKDRELVATISSSGGDTYYADSVKGRFTISRDNAKNTVYLQMKSLKPEDTAVYSCNAAGRTPSTGFDYDYWGQGTQVTVSS,low polyreactivity
20,QVQLVESGGGLVQAGGSLRLSCAASGRILPYNVMGWFRQARGKEREFVAAITGSGGDTYYADSVKGRFTISRDNAKNTVYLQMNSLKPEDTAVYYCAAAPYIGGSFGQTPGSGYWGQGTQVTVSS,low polyreactivity
21,QVQLVESGGGLVQAGGSLRLSCAASGRILPYYAMGWYRQEPGKERELVAAITGGGGSTYYADSVKGRFTISRDNAKNTVYLQMNSLKPEDTAVYYCAKPRGRASLALYRFSLYYYWGQGTQVTVSS,high polyreactivity
22,QVQLVESGGGLVQAGGSLRLSCAASGRILRGYAMGWYRQAPGKERELVAAINSGGDTYYADSVKGRFTISRDNAKNTVYLQMNSLKPEDTAVYYCASDYWGWIYLYGDHLVDYRGQGTQVTVSS,low polyreactivity

row,Sequence,polyreactivity (PSR sort gate)
1,QVQLVESGGGLVQAGGSLRLSCAASGRILRHNAMGWYRQAPGKERELVAAITRSGGRTYYADSVKGRFTISRDNAKNTVYLQMNSLKPEDTAVYDCAAGDYGWVPYNLRGSRMNYWGQGTQVTVSS,high polyreactivity
2,QVQLVESGGGLVQAGGSLRLSCAASGRILRQYAMGWYRQEPGKERELVAAISRSGASTFYADSVKGRFTISRDNAKNTVYLPMNSLKPEYTAVYYCASKRYLKYGYWGQGTQVTVSS,high polyreactivity
3,QVQLVESGGGLVQAGGSLRLSCAASGRILRTYAMGWYRQAPGKERELVAAITRGGSTYYADSVKGRFTISRDNAKNTVYLQMNSLKPEDTAVYYCNKYKSPYITLSQYGYWGQGTQVTVSS,high polyreactivity
4,QVQLVESGGGLVQAGGSLRLSCAASGRILRYKAMGWYRQAPGKDRELVAAMSSGGSTYADSVKGRFTISRDNAKNTVYLQMNSLKPEDTAVYYCAVQSTRRGPYSWPYGYWGQGTQVTVSS,high polyreactivity
5,QVQLVESGGGLVQAGGSLRLSCAASGRILRYNAMGWYRQAPGKERELVASISGNGGSTYYADSVKGRFTISRDNAKNTVYLQMNSLKPEDTAVYYCNKYYYSSRGQKEYDYWGQGTQVTVSS,low polyreactivity
6,QVQLVESGGGLVQAGGSLRLSCAASGRILRYYAMGWYRQAPGKERELVASITSGGSTYYADSVKGRFTISRDNAKNTVYLQMNSLKQEDTAVYYCAADPVYLKKLLYYVGQAYYYWGQGTQVTVSS,high polyreactivity
7,QVQLVESGGGLVQAGGSLRLSCAASGRILSVYAMGWYRQAPGKERELDAGISKRGGRTYYADSVKGRFTISRDNAKNTVYLQMKSLTPEDTAVYYCAADYSSYWGRDYWGQGTQVTVSS,high polyreactivity
8,QVQLVESGGGLVQAGGSLRLSCAASGRILSYYAMGWYRQAPGKERELVATISASGGSTYYADSVKGRFTISRDNAKNTVYLQMNSLKPEDTAVYYCAAARVPAYYLRYFYRTTYDYWGQGTQVTVSS,high polyreactivity
9,QVQLVESGGGLVQAGGSLRLSCAASGRILTPYTMGWYRQAPGKERELVAAISKRGTSTHYADSVKGRFTISRDNAKNTVYLLMNSLKPEDTAVYYCNAVYRSSQYDYWGQGTQVTVSS,high polyreactivity
10,QVQLVESGGGLVQAGGSLRLSCAASGRILTSNAMGWSRQAPGKERELVAAISWSGGSTYYADSVKGRFTISRDNAKNTVYLQMNSLKPEDTAVYYCAAPFTTTFDYWGQGTQVTVSS,low polyreactivity
11,QVQLVESGGGLVQAGGSLRLSCAASGRILVRNAMGWYRQAPGKERELVAAIRRGTSTNYADSVKGRFTISRDNAKNTVYLQMNSLKPEDTAVYYCAVRAASPYLDGAWRRRYDYWGQGTQVTVSS,low polyreactivity
12,QVQLVESGGGLVQAGGSLRLSCAASGRILYDYDMGWYRQAPGKERELVATISRGGGTNYADSVKGRFTISRDNAKNTVYLQMNSLKPEDTAVYYCAADRWYSRYTRYGYWGQGTQVTVSS,low polyreactivity
13,QVQLVESGGGLVQAGGSLRLSCAASGRILYGYAMGWYRQAPGKERELVASIPWSGGSTYADSVKGRFTISRDNAKNTVYLQMNSLKPEDTAVYYCATRRGPKWQWLTYGYWGQGTQVTVSS,low polyreactivity
14,QVQLVESGGGLVQAGGSLRLSCAASGRILYGYTMGWYRQAPGKEREFVATITRGGSTYYADSVKGRFTISRDNAKNTVYLQMNSLKPEDTAVYYCAAELSLATPTVPWYLYNYWGQGTQVTVSS,low polyreactivity
15,QVQLVESGGGLVQAGGSLRLSCAASGRILYIYAMGWYRQAPGKERELVAAIRSSGGSTYYADSVKGRFTISRDNAKNSVYLQMNSLKPDDTAVYYCAATSRVSKSHLYGYWGQGTQVTVSS,high polyreactivity
16,QVQLVESGGGLVQAGGSLRLSCAASGRILYLYTMGWYRQAPGKERELVAAISRGGSTYYADSVKGRFTISRDNAKNTVYLQMNSLKPEDTAVYYCSADARGYQFNYWGQGTLVTVSS,high polyreactivity
17,QVQLVESGGGLVQAGGSLRLSCAASGRILYRYAMGWYRQAPGKERELVAAISYSGGSTSYADSVKGRFTISRDNAKNTVYVQMNSLKPEDTAVYYCAAAYYLLRYKKRYDYWGQGTQVTVSS,high polyreactivity
18,QVQLVESGGGLVQAGGSLRLSCAASGRILYRYAMGWYRQAPGKERELVADISWSGGSRYYADSVKGRFTISRDNAKNTVYLQMNSLKPEDTAVYYCAAFRLWYSTFDYWGQGTQVTVSS,high polyreactivity
19,QVQLVESGGGLVQAGGSLRLSCAASGRILYSYAMGWYRQAPGKEREFVADIRRSGGSTYYADSVKGRFTISRDNAKNTVYLQMNSLKPEDTAVYYCAKSQSAKGGYDYWGQGTQVTVSS,high polyreactivity
20,QVQLVESGGGLVQAGGSLRLSCAASGRILYSYAMGWYRQAPGKERELVASISWSGGSTYYADSVKGRFTISRDNAKNTVYLQMNSLKPEDTAVYYCAKKYYSVYQTDVSGRYDYWGQGTQVTVSS,low polyreactivity
21,QVQLVESGGGLVQAGGSLRLSCAASGRILYSYPMGGYRQAPGKERELVASISLSGGRTYADSVKGRFTISRDNAKNTVFLQMNSLKPVDTAVYYCNARIRTSRYLWPFDYWGQGTQVTVSS,high polyreactivity

# Reference: the nanobody polyreactivity screen of Harvey et al. (2022)
